Laboratory results from the array DNA melting data of Ke et al..

Experiment: melting temperature; melt of duplexes
Conditions: sodium 0.0675 M; strand 1 µM

Substance	Tm
CGACGTGCAGTATGTGCTG+CAGCACATACCGCACGTCG ((((((((.((((((((((+)))))))))).))))))))	55.7 °C
CGACGTGCAGTATGTGCTG+CAGCACATACTGCACGTCG (((((((((((((((((((+)))))))))))))))))))	62.7 °C
CGACGTGCAGTATGTGCTG+CAGCACATAGTGCACGTCG (((((((((.(((((((((+))))))))).)))))))))	55.1 °C
CGACGTGCAGTATGTGCTG+CAGCACATATGGCACGTCG ((((((((..(((((((((+)))))))))..))))))))	52.7 °C
CGACGTGCAGTATGTGCTG+CAGCACATCAAGCACGTCG ((((((((...((((((((+))))))))...))))))))	49.6 °C
CGACGTGCAGTATGTGCTG+CAGCACATCATGCACGTCG (((((((((..((((((((+))))))))..)))))))))	51.4 °C
CGACGTGCAGTATGTGCTG+CAGCACATCTAGCACGTCG ((((((((...((((((((+))))))))...))))))))	50.8 °C
CGACGTGCAGTATGTGCTG+CAGCACATCTGGCACGTCG ((((((((...((((((((+))))))))...))))))))	51.4 °C
CGACGTGCAGTATGTGCTG+CAGCACATGAAGCACGTCG ((((((((...((((((((+))))))))...))))))))	50.5 °C
CGACGTGCAGTATGTGCTG+CAGCACATGATGCACGTCG (((((((((..((((((((+))))))))..)))))))))	55 °C
CGACGTGCAGTATGTGCTG+CAGCACATGCCGCACGTCG ((((((((.(.((((((((+)))))))).).))))))))	52.8 °C
CGACGTGCAGTATGTGCTG+CAGCACATGGCGCACGTCG ((((((((...((((((((+))))))))...))))))))	50.2 °C
CGACGTGCAGTATGTGCTG+CAGCACATGGTGCACGTCG (((((((((..((((((((+))))))))..)))))))))	53.9 °C
CGACGTGCAGTATGTGCTG+CAGCACATGTGGCACGTCG ((((((((...((((((((+))))))))...))))))))	50.4 °C
CGACGTGCAGTATGTGCTG+CAGCACATTACGCACGTCG ((((((((...((((((((+))))))))...))))))))	52.1 °C
CGACGTGCAGTATGTGCTG+CAGCACATTATGCACGTCG (((((((((..((((((((+))))))))..)))))))))	52.4 °C
CGACGTGCAGTATGTGCTG+CAGCACATTCCGCACGTCG ((((((((.(.((((((((+)))))))).).))))))))	50.1 °C
CGACGTGCAGTATGTGCTG+CAGCACATTCGGCACGTCG ((((((((.(.((((((((+)))))))).).))))))))	53.1 °C
CGACGTGCAGTATGTGCTG+CAGCACATTGCGCACGTCG ((((((((...((((((((+))))))))...))))))))	49.3 °C
CGACGTGCAGTATGTGCTG+CAGCACATTGGGCACGTCG ((((((((...((((((((+))))))))...))))))))	48.8 °C
CGACGTGCAGTATGTGCTG+CAGCACATTTGGCACGTCG ((((((((...((((((((+))))))))...))))))))	49.2 °C
CGACGTGCATAATGTGCTG+CAGCACATAAAGCACGTCG ((((((((.(.((((((((+)))))))).).))))))))	50.2 °C
CGACGTGCATAATGTGCTG+CAGCACATACTGCACGTCG (((((((((..((((((((+))))))))..)))))))))	50.5 °C
CGACGTGCATAATGTGCTG+CAGCACATATGGCACGTCG ((((((((...((((((((+))))))))...))))))))	50.4 °C
CGACGTGCATAATGTGCTG+CAGCACATCAAGCACGTCG ((((((((.(.((((((((+)))))))).).))))))))	48.4 °C
CGACGTGCATAATGTGCTG+CAGCACATCAGGCACGTCG ((((((((.(.((((((((+)))))))).).))))))))	50.2 °C

Substance	Tm
CGACGTGCATAATGTGCTG+CAGCACATCATGCACGTCG ((((((((((.((((((((+)))))))).))))))))))	54 °C
CGACGTGCATAATGTGCTG+CAGCACATCCCGCACGTCG ((((((((...((((((((+))))))))...))))))))	46.9 °C
CGACGTGCATAATGTGCTG+CAGCACATCGAGCACGTCG ((((((((...((((((((+))))))))...))))))))	48.5 °C
CGACGTGCATAATGTGCTG+CAGCACATCGTGCACGTCG (((((((((..((((((((+))))))))..)))))))))	47.6 °C
CGACGTGCATAATGTGCTG+CAGCACATCTCGCACGTCG ((((((((...((((((((+))))))))...))))))))	47.6 °C
CGACGTGCATAATGTGCTG+CAGCACATGAAGCACGTCG ((((((((.(.((((((((+)))))))).).))))))))	52.8 °C
CGACGTGCATAATGTGCTG+CAGCACATGAGGCACGTCG ((((((((.(.((((((((+)))))))).).))))))))	53.2 °C
CGACGTGCATAATGTGCTG+CAGCACATGATGCACGTCG ((((((((((.((((((((+)))))))).))))))))))	56.8 °C
CGACGTGCATAATGTGCTG+CAGCACATGCAGCACGTCG ((((((((...((((((((+))))))))...))))))))	51.4 °C
CGACGTGCATAATGTGCTG+CAGCACATGCCGCACGTCG ((((((((...((((((((+))))))))...))))))))	50.9 °C
CGACGTGCATAATGTGCTG+CAGCACATGCGGCACGTCG ((((((((...((((((((+))))))))...))))))))	48.7 °C
CGACGTGCATAATGTGCTG+CAGCACATGGCGCACGTCG ((((((((...((((((((+))))))))...))))))))	53 °C
CGACGTGCATAATGTGCTG+CAGCACATGTAGCACGTCG ((((((((...((((((((+))))))))...))))))))	52.6 °C
CGACGTGCATAATGTGCTG+CAGCACATGTGGCACGTCG ((((((((...((((((((+))))))))...))))))))	51 °C
CGACGTGCATAATGTGCTG+CAGCACATGTTGCACGTCG (((((((((..((((((((+))))))))..)))))))))	53.7 °C
CGACGTGCATAATGTGCTG+CAGCACATTAAGCACGTCG ((((((((.((((((((((+)))))))))).))))))))	55.1 °C
CGACGTGCATAATGTGCTG+CAGCACATTCAGCACGTCG ((((((((..(((((((((+)))))))))..))))))))	52 °C
CGACGTGCATAATGTGCTG+CAGCACATTCCGCACGTCG ((((((((..(((((((((+)))))))))..))))))))	50.2 °C
CGACGTGCATAATGTGCTG+CAGCACATTCGGCACGTCG ((((((((..(((((((((+)))))))))..))))))))	51.8 °C
CGACGTGCATAATGTGCTG+CAGCACATTGGGCACGTCG ((((((((..(((((((((+)))))))))..))))))))	54.2 °C
CGACGTGCATAATGTGCTG+CAGCACATTTCGCACGTCG ((((((((..(((((((((+)))))))))..))))))))	51 °C
CGACGTGCATAATGTGCTG+CAGCACATTTTGCACGTCG (((((((((.(((((((((+))))))))).)))))))))	56.1 °C
CGACGTGCATCATGTGCTG+CAGCACATAACGCACGTCG ((((((((.(.((((((((+)))))))).).))))))))	48.3 °C
CGACGTGCATCATGTGCTG+CAGCACATACGGCACGTCG ((((((((...((((((((+))))))))...))))))))	46.3 °C
CGACGTGCATCATGTGCTG+CAGCACATAGAGCACGTCG ((((((((...((((((((+))))))))...))))))))	50.1 °C
CGACGTGCATCATGTGCTG+CAGCACATATGGCACGTCG ((((((((...((((((((+))))))))...))))))))	48.8 °C
